Assay results taken from article PMC3161067, “Combined SAXS/EM Based Models of the S. elongatus Post-Translational Circadian Oscillator and its Interactions with the Output His-Kinase SasA” (PLoS ONE, 2011).

B3: wild type KaiC (S. elongatus) (natural protein, UniProt Q79PF4 1-519, looked up)
chain: MTSAEMTSPNNNSEHQAIAKMRTMIEGFDDISHGGLPIGRSTLVSGTSGTGKTLFSIQFLYNGIIEFDEPGVFVTFEETPQDIIKNARSFGWDLAKLVDEGKLFILDASPDPEGQEVVGGFDLSALIERINYAIQKYRARRVSIDSVTSVFQQYDASSVVRRELFRLVARLKQIGATTVMTTERIEEYGPIARYGVEEFVSDNVVILRNVLEGERRRRTLEILKLRGTSHMKGEYPFTITDHGINIFPLGAMRLTQRSSNVRVSSGVVRLDEMCGGGFFKDSIILATGATGTGKTLLVSRFVENACANKERAILFAYEESRAQLLRNAYSWGMDFEEMERQNLLKIVCAYPESAGLEDHLQIIKSEINDFKPARIAIDSLSALARGVSNNAFRQFVIGVTGYAKQEEITGLFTNTSDQFMGAHSITDSHISTITDTIILLQYVEIRGEMSRAINVFKMRGSWHDKAIREFMISDKGPDIKDSFRNFERIISGSPTRITVDEKSELSRIVRGVQEKGPES
notes: KaiC, Synechococcus elongatus; C-terminal residue S519; Its phosphorylation state varies in the cycling reaction; also called wt-KaiC; TST; source: E. coli BL21, purified
B4: KaiC T432A/S431A double mutant (natural protein, S. elongatus, UniProt Q79PF4 1-519, looked up)
chain: MTSAEMTSPNNNSEHQAIAKMRTMIEGFDDISHGGLPIGRSTLVSGTSGTGKTLFSIQFLYNGIIEFDEPGVFVTFEETPQDIIKNARSFGWDLAKLVDEGKLFILDASPDPEGQEVVGGFDLSALIERINYAIQKYRARRVSIDSVTSVFQQYDASSVVRRELFRLVARLKQIGATTVMTTERIEEYGPIARYGVEEFVSDNVVILRNVLEGERRRRTLEILKLRGTSHMKGEYPFTITDHGINIFPLGAMRLTQRSSNVRVSSGVVRLDEMCGGGFFKDSIILATGATGTGKTLLVSRFVENACANKERAILFAYEESRAQLLRNAYSWGMDFEEMERQNLLKIVCAYPESAGLEDHLQIIKSEINDFKPARIAIDSLSALARGVSNNAFRQFVIGVTGYAKQEEITGLFTNTSDQFMGAHSITDSHIAAITDTIILLQYVEIRGEMSRAINVFKMRGSWHDKAIREFMISDKGPDIKDSFRNFERIISGSPTRITVDEKSELSRIVRGVQEKGPES
notes: KaiC, Synechococcus elongatus, with S431A and T432A; the tag is therefore uncertain; also called KaiC-aa; S431A/T432A
B5: KaiC T432E/S431E double mutant (natural protein, S. elongatus, UniProt Q79PF4 1-519, looked up)
chain: MTSAEMTSPNNNSEHQAIAKMRTMIEGFDDISHGGLPIGRSTLVSGTSGTGKTLFSIQFLYNGIIEFDEPGVFVTFEETPQDIIKNARSFGWDLAKLVDEGKLFILDASPDPEGQEVVGGFDLSALIERINYAIQKYRARRVSIDSVTSVFQQYDASSVVRRELFRLVARLKQIGATTVMTTERIEEYGPIARYGVEEFVSDNVVILRNVLEGERRRRTLEILKLRGTSHMKGEYPFTITDHGINIFPLGAMRLTQRSSNVRVSSGVVRLDEMCGGGFFKDSIILATGATGTGKTLLVSRFVENACANKERAILFAYEESRAQLLRNAYSWGMDFEEMERQNLLKIVCAYPESAGLEDHLQIIKSEINDFKPARIAIDSLSALARGVSNNAFRQFVIGVTGYAKQEEITGLFTNTSDQFMGAHSITDSHIEEITDTIILLQYVEIRGEMSRAINVFKMRGSWHDKAIREFMISDKGPDIKDSFRNFERIISGSPTRITVDEKSELSRIVRGVQEKGPES
modifications: phosphoserine at 320 (in the A and F subunits of the crystal structure)
notes: KaiC, Synechococcus elongatus, with S431E and T432E; the tag is therefore uncertain; also called KaiC-ee; S431E/T432E

Assays:
[1] = target: B5; assay: SAXS; binary complexes in solution, conditions set by native PAGE, 0.5-2.0 mg/mL, 10 or 20°C; ab initio envelopes without symmetry; conditions: both partners purified
[2] = target: B3; assay: negative-stain EM; Kai complexes of the in vitro cycling reaction with 1x or 4x KaiA; reconstruction of class IV particles at ~30 Å; conditions: both partners purified
[3] = target: the molecule itself; assay: SAXS; individual proteins in solution, 0.5-2.0 mg/mL, 10 or 20°C; ab initio envelopes (DAMMIN, GASBOR) compared with crystal structures
[4] = target: B4; assay: SAXS; binary complexes in solution, conditions set by native PAGE, 0.5-2.0 mg/mL, 10 or 20°C; ab initio envelopes without symmetry; conditions: both partners purified
[5] = target: T1, KaiBC complex (KaiB with wild type KaiC) (S. elongatus, UniProt Q79PF5 1-102; Q79PF4 1-519); assay: negative-stain EM; Kai complexes of the in vitro cycling reaction with 1x or 4x KaiA; reconstruction of class IV particles at ~30 Å; conditions: both partners purified
T1 construct: KaiB, Synechococcus elongatus, as m2; wild type KaiC, Synechococcus elongatus, as m3; KaiC phosphorylation state varies in the cycling reaction; also called KaiB-KaiC; source: formed in the in vitro cycling reaction from purified proteins; copies: + 6
T1 sequence (looked up) 1: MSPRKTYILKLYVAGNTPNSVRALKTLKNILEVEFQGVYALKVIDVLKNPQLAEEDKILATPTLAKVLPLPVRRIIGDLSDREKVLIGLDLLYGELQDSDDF
T1 sequence (looked up) 2: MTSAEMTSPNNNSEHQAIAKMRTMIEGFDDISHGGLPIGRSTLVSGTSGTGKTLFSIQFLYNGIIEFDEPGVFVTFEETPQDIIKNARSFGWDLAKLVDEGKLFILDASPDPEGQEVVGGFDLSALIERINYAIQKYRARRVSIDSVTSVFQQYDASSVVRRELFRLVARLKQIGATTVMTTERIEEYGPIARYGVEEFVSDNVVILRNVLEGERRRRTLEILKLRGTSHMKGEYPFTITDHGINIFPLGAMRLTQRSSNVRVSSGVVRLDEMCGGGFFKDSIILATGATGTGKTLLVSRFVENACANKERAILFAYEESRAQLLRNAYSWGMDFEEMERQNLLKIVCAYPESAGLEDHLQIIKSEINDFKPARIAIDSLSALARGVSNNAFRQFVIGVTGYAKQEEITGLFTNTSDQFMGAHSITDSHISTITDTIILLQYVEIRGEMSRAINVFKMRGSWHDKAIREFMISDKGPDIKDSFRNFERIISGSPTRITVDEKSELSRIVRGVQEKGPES

[6] = target: the molecule itself; assay: as above
[7] = target: the molecule itself; assay: negative-stain EM; SasA:KaiC-aa complex, uranyl formate 0.75%, class averages and 3D reconstruction (C1) at 23.5 Å
[8] = target: the molecule itself; assay: crystal structure; KaiC-ee with ATPγS, 3.0 Å, molecular replacement with PDB 3DVL
[9] = target: B4; assay: negative-stain EM; SasA:KaiC-aa complex, uranyl formate 0.75%, class averages and 3D reconstruction (C1) at 23.5 Å; conditions: both partners purified

B1: KaiB (S. elongatus) (natural protein, UniProt Q79PF5 1-102, looked up)
chain: MSPRKTYILKLYVAGNTPNSVRALKTLKNILEVEFQGVYALKVIDVLKNPQLAEEDKILATPTLAKVLPLPVRRIIGDLSDREKVLIGLDLLYGELQDSDDF
notes: KaiB, Synechococcus elongatus; Tetramer free in solution; The crystal model used for SAXS (PDB 2QKE) is KaiB of another species (T. elongatus); also called KaiB tetramer; wt KaiB; source: E. coli BL21, GST fusion, purified
[1]
  stoichiometry N: 2 KaiB dimers per KaiC hexamer
[2]
  binding result: binds
[3]
  stoichiometry N: 4

B2: KaiA (S. elongatus) (natural protein, UniProt Q79PF6 1-284, looked up)
chain: MLSQIAICIWVESTAILQDCQRALSADRYQLQVCESGEMLLEYAQTHRDQIDCLILVAANPSFRAVVQQLCFEGVVVPAIVVGDRDSEDPDEPAKEQLYHSAELHLGIHQLEQLPYQVDAALAEFLRLAPVETMADHIMLMGANHDPELSSQQRDLAQRLQERLGYLGVYYKRDPDRFLRNLPAYESQKLHQAMQTSYREIVLSYFSPNSNLNQSIDNFVNMAFFADVPVTKVVEIHMELMDEFAKKLRVEGRSEDILLDYRLTLIDVIAHLCEMYRRSIPRET
notes: KaiA, Synechococcus elongatus; also called KaiA dimer; wt KaiA; source: E. coli BL21, GST fusion, purified
[4]
  stoichiometry N: 1 KaiA dimer per KaiC hexamer
[5]
  binding result: binds
[3]
  stoichiometry N: 2

## B3
[6]
  stoichiometry N: 6

## B4
[7]
  stoichiometry N: 6

## B5
[8]
  stoichiometry N: 6

B6: SasA (S. elongatus His kinase) (natural protein, UniProt Q06904 1-387, looked up)
chain: MGESLSPQALAQPLLLQLFVDTRPLSQHIVQRVKNILAAVEATVPISLQVINVADQPQLVEYYRLVVTPALVKIGPGSRQVLSGIDLTDQLANQLPQWLVQQEAFFADREPPEVNIPFTELGQPETPALQQADAFFQLQQQYADLSERTKFLEQVIALVAHDLRNPLTAALLAVDTIQIRSQSFSVATAKEMQGLCSLFDQARSQLREIERMIAEILEATRHSGESLRINPREVVFEPLLQQVLEQLHERWRSKQQQLITDVPGDLPTLYADPDRLRQVLVNLLDNAIKYTPPGGTITIAALHRTSQKVQISISDTGSGIPRDQLSVIFKNLVRLSRDSSQEGYGIGLSVCQRIVQAHFGRIWVASELGQGSTFHFTMPVYRYTMPC
notes: SasA, adaptive-response sensory His kinase, Synechococcus elongatus; N-terminal sensory domain is residues 1-97; its expression and purification are not described; also called full-length SasA; wt SasA
[9]
  stoichiometry N: 2 binding sites per KaiC hexamer
[1]
  stoichiometry N: 2 SasA dimers per KaiC hexamer
